The results in this text go back to patent publication JP2005027671A (dated 2005).

Changes are numbered by the printed parent chain.

Experiment [1] addresses T1, 可溶性ヒトVEGF受容体KDR 7N (human, UniProt P35968 20-757).
T1 construct: range 1-738; The range 1-738 counts on the mature protein (after the 19-residue signal peptide)
The experiment can be described thus: ELISA, coated antigen from 10 ug/ml in 3-fold dilutions. Background: An ELISA detects its analyte on a solid surface through an enzyme-linked reagent.

The target in experiment [2] is T2, 可溶性ヒトVEGF受容体Flt-1 7N (human, UniProt P17948 27-750).
T2 construct: range 1-750; also called 可溶性ヒトFlt-1 7N
The experiment can be described thus: inhibition of 125I-VEGF binding to coated Flt-1 7N, purified antibody.

Experiment [3] deals with T3, ヒトVEGF受容体Flt-1(細胞表面発現) (human, UniProt P17948 27-1338).
T3 construct: whole, on cells; also called NIH3T3-Flt-1細胞; ヒトVEGF受容体Flt-1発現NIH3T3細胞
The experiment can be described thus: inhibition of 125I-VEGF binding to NIH3T3-Flt-1 cells, purified antibody.

In experiment [4] the target is T1, 可溶性ヒトVEGF受容体KDR 7N. The experiment can be described thus: ELISA, coated antigen 4 ug/ml.
The target of experiment [5] is T1, 可溶性ヒトVEGF受容体KDR 7N. The experiment can be described thus: ELISA, coated antigen 4 ug/ml, antibody titrated.

T1 sequence (P35968 20-757): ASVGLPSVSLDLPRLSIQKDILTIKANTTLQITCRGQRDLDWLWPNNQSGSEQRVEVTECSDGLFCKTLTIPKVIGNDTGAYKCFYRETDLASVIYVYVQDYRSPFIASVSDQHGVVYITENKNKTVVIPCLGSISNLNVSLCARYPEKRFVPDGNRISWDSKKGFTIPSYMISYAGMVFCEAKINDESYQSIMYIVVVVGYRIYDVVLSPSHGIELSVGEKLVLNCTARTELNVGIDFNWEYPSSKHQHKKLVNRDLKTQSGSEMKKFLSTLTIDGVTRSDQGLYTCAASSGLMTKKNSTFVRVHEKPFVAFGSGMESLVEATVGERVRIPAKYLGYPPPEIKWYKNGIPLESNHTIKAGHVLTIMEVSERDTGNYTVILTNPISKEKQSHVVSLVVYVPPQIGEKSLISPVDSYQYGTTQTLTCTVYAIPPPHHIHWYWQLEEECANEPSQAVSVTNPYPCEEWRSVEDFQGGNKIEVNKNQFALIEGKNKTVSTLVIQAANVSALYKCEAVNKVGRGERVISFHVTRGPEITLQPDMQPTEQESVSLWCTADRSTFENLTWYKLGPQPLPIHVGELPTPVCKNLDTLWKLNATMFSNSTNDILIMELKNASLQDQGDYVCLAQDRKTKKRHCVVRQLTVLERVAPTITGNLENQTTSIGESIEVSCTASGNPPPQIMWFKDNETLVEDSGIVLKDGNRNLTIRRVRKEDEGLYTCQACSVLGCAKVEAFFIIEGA

B1: 抗ヒトVEGF受容体Flt-1ヒト型CDR移植抗体KM8550 (antibody, V domains shown)
VH: QVQLVQSGAEVKKPGASVKVSCKASGYTFINYNMHWVRQAPGQGLEWMGAIFPGNGFTSYNQKFKGRVTITVDKSTSTAYMELSSLRSEDTAVYYCARDGDYYFDYWGQGTLVTVSS
VL: DIQMTQSPSSLSASVGDRVTITCSASSSVSYMHWYQQKPGKAPKLLIYRTSNLASGVPSRFSGSGSGTDFTLTISSLQPEDFATYYCHQWSMYTFGQGTKVEIK
notes: CDR-grafted IgG derived from KM1750; also called pKANTEX1750HV0LV0(I); 1750HV0 + 1750LV0(I)
B1: in experiment [1], the binding result is on record as “no binding (tested: 5μg/ml)”.

B2: 抗ヒトVEGF受容体Flt-1ヒト型CDR移植抗体KM8551 (antibody, V domains shown)
VH: B1 VH
VL: DIVMTQSPDSLAVSLGERATINCSASSSVSYMHWYQQKPGQPPKLLIYRTSNLASGVPDRFSGSGSGTDFTLTISSLQAEDVAVYYCHQWSMYTFGQGTKVEIK
notes: CDR-grafted IgG derived from KM1750; also called pKANTEX1750HV0LV0(IV); 1750HV0 + 1750LV0(IV)
B2: the binding result in experiment [1] is “no binding (tested: 5μg/ml)”.

B3: 抗ヒトVEGF受容体Flt-1ヒト型CDR移植抗体KM8552 (antibody, V domains shown)
VH: B1 VH with E82Q, S84R, Y95F
VL: B1 VL
notes: CDR-grafted IgG derived from KM1750 with modified VH framework; also called pKANTEX1750HV3LV0(I); 1750HV3 + 1750LV0(I)
As for B3, the binding result in experiment [1] is recorded as “no binding (tested: 5μg/ml)”.

B4: 抗ヒトVEGF受容体Flt-1ヒト型CDR移植抗体KM8553 (antibody, V domains shown)
VH: B1 VH with E82Q, S84R, Y95F
VL: B2 VL
notes: CDR-grafted IgG derived from KM1750 with modified VH framework; also called pKANTEX1750HV3LV0(IV); 1750HV3 + 1750LV0(IV)
Regarding B4, the binding result in experiment [1] is “no binding (tested: 5μg/ml)”.

B5: 抗ヒトVEGF受容体Flt-1ヒト型CDR移植抗体KM8554 (antibody, V domains shown)
VH: B1 VH
VL: B1 VL with D17E, R18E, D69F, F70Y
notes: CDR-grafted IgG derived from KM1750 with modified VL framework; also called pKANTEX1750HV0LV4; 1750HV0 + 1750LV4
Turning to B5, in experiment [1], the binding result is on record as “no binding (tested: 5μg/ml)”.

B6: 抗ヒトVEGF受容体Flt-1ヒト型CDR移植抗体KM8555 (antibody, V domains shown)
VH: B1 VH with E82Q, S84R, Y95F
VL: B1 VL with D17E, R18E, D69F, F70Y
notes: CDR-grafted IgG derived from KM1750 with modified VH and VL frameworks; also called pKANTEX1750HV3LV4; 1750HV3 + 1750LV4
B6: the binding result in experiment [1] was “no binding (tested: 5μg/ml)”.

B7: 抗ヒトVEGF受容体Flt-1マウスモノクローナル抗体KM1732 (antibody, V domains shown)
VH: QGQMQQSGAELVKPGASVKLSCKPSGFTFSSNYISWLKQKPGQSLEWIAWIYAGTGDASYNQKFTAKAHVTVDTSSSTAYMQLSSLTTEDSAIYYCARHGGDGYWFAYWGQGTLVTVSA
VL: QLVLTQSPAIMSASQGEKVTMTCSASSSVSYMHWYQQKSGTSPKRWIYDTSKLPSGVPARFSGSGSGTSYSLTISSMEAEDAATYYCQQWSSNPPTFGAGTKLELK
notes: Mouse hybridoma IgG (Balb/c mouse immunised with Flt-1 7N, screened on Flt-1 3N); cDNAs were cloned with mouse Cgamma1 and Ckappa probes; also called FERM BP-5698
Broadly, the IC50 is the concentration that gives 50% inhibition. Read a high IC50 as a need for much substance. Consider B7, for which the IC50 in experiment [2] stood at 1.1 µg/mL; in experiment [3], 0.05 µg/mL. Moreover, the binding result in experiment [4] is “no binding (tested: 0.1μg/ml)”.

B8: 抗ヒトVEGF受容体Flt-1ヒト型キメラ抗体KM2532 (antibody, V domains shown)
VH: B7 VH
VL: B7 VL
notes: Expressed in YB2/0 cells; also called pKANTEX1732
Take B8: in experiment [5], the binding result was “no binding (tested: 0.0152〜100ng/ml)”.

B9: 抗ヒトVEGF受容体Flt-1マウスモノクローナル抗体KM1750 (antibody, V domains shown)
VH: QAFLQQSGAELVRPGASVKMSCKASGYTFINYNMHWVKQTPRQGLEWIGAIFPGNGFTSYNQKFKGKATLTVDKSSSTVYMQLRSLTSEDSAVYFCARDGDYYFDYWGQGTTLTVSS
VL: QIVLTQSPAIMSASLGEEITLTCSASSSVSYMHWYQQKSGTSPKLLIYRTSNLASGVPFRFSGSGSGTFYSLTISSVEAEDAADYYCHQWSMYTFGGGTKLEIK
notes: cDNAs were cloned with mouse Cgamma1 and Ckappa probes; also called FERM BP-5700
Regarding B9, the IC50 was 2 µg/mL in experiment [2] and 0.041 µg/mL in experiment [3]. The binding result in experiment [4] is “no binding (tested: 0.1μg/ml)”.

B10: 抗ヒトVEGF受容体Flt-1ヒト型キメラ抗体KM2550 (antibody, V domains shown)
VH: B9 VH
VL: B9 VL
notes: Expressed in YB2/0 cells; also called pKANTEX1750
For B10, the binding result in experiment [5] was “no binding (tested: 0.0152〜100ng/ml)”.
